In a protein production outcome set (Wang et al. 2014):

Test: label from the status in PepcDB records

Row | Sequence | protein production
1 | YLASDGKTIIYVGRNNLQNEELTFKMARKEELWFHAKDIPGSHVVISGNLDPSDAVKTDAAELAAYFSQGRLSNLVQVDMIEVKKLNK | failed
2 | MRDIPLLIPILLILFVSLGLARVKTILVVGAFSLFFVYGYLKGENIGTPRRRIEVNDDVFSVMLILSVIIILIQIANLRGIPLLHPHLRTHLNPKLTGLTYFLGLPSSVYLIIRGKKLGFLYPLMVALYAYRTPVLVALIALTLPYLEDMKKGKKAVEIGVIGIFLLFLISYFRGSLSFLTRIQGTTSVLDVIVKRCSVVGFYKGELQLAGVKSYIFGGLGPRTMIARYLGIPGVTITATLIGGMYLDFGLLSSLEMLLLGFYYGIMKKLRSDVGRSFYYSTLSYGIVGVETGILDLPVYLMILVGLLIAWREFDGNLRKDIRRIISWISSSSNNW | failed
3 | MHNKKWDLRIICAHAFTILIWGTAFPAIRMGLESYTPEHLTLLRLLIASFILLLFSFIYKLRLPDLKDIPAIFIFGALGFTIYHIALNYGEKTVNAGSASLIISVTPIVTAILASVFLNEKMKLNGWLGGVISFAGIALISFSQGDAIQLNSGGLFILLAAISESLFFVFQTSYLKKYGFLPFTIYTILSSTVCMLIFLPGVYQEILAAPLEVNLSVIYLGVFPTVLPYIALAYIISRAGASEATSSLYLTPITACFIAWIWLGEVPTLVSIIGGGITILGIVIAHIPVLRKEKHRNLANNQSV | failed
4 | MAVTSPNMPASIRWGGIVALIQSTIGFGYAFFLIYREATGETDPSIVYETDNANTWVGYGTAAFFIIVFGTVVAGAINMMKGHRWGRGAVVMLNIILLPAAYYMFIEGRFSWAIVTGISALFVLGALFNKRAVLWANNEI | failed
5 | MKSGERSAVADRAQQIMSAARELLDAEGPDALSMRRIAERVGIRAPSLYKHFADKAALVAGLQAQGLTLLAEVQEAAEAEIGADPPLLVLGYAYRRHALASPHLYRITHGWPLARTALPEGLEDRAALPLARAVHGDINIARSFWAFAHGMVVLELDGRFPPGADLDVAWRTGCEAFTQAIRNRPHGSTA | not failed
6 | MAGGPPNTKAEMEMSLAEELNHGRQGENQEHLVIAEMMELGSRSRGASQKKQKLEQKAAGSASAKRVWNMTATRPKKMGSQLPKPRMLRESGHGDAHLQEYAGNFQGIRFHYDRNPGTDAVAQTSLEEFNVLEMEVMRRQLYAVNRRLRALEEQGATWRHRETLIIAVLVSASIANLWLWMNQ | failed
7 | MPANKKEGLIFGVMMCFGMVCVMSIYNAIINRAIYDFSLMTVFEMVIGFMIALLLDLLLVGPLAKKIAFRMPFDKTKKIYVILAMSTCMVIGMVLCMSVFGLVTAVLANGLNGDSLFSAYLMIVLKNFILAYPLQLLIMGPLVRGVFMKFVKPKLTAAI | failed
8 | MRFPFCTGGKTFVLWDVEVCPIPDGLGPHDVFSNIKRVLMDNGYRGDVSTTPYTDLTKSNGEFNGIPVRHLSAGDRDARLEVYMIDLYSCVVKEDGPLNLMLFVGDISSRSKDFFRVFRLLQSSSSDSSVPLSLTQDGICKALTFGEEVIIRECGERRKVPNSD | not failed
9 | MGHHHHHHSHGQTFAGVIRGVQSYGFFVQIEALQVEGLVHVSSPKDDWYEYRSRQQRLIGRKNRRQFGLGDRVEVEIRNVDYYRQQIDLGVLPLPEAQSETSDREP | not failed
10 | MQFIVSKKEFIPPVIAPDIIETLGDDYEIWTYEDYERLPPLLVGVYSYSAIPKCLAPLSTQGLVKSGVFRLQREFVPGLYGNGVYVVVIDTGVNYAQEAFMTPEGKTKIAVLWDQNTDTVYSEDEINAAILSENPYESIPGDEDGHGTFVASVICGNDRPQDDFAGVAPQAKLIVVKLKRAPQKLYDFYFIPDRKMVYSEVDVMRAVHFADEFAGQKGAPAVFCMALGCNNGSHTGAEDLSEYLDYITAKRGRAVVAAAGNEANSRHHYKGRITDTVDDIEINVEQDMDGFYLECWALSPELFTLSVISPSGQSNPAGVPMRIDSGEYSFLLEGTQVTIDYRQTGRQTRDLLIFIRFEKVVKGVWTIRVFPLSTIGGVFNMWLPMTGLLDADVSFIVSEPDTTLTMPSDAKLVITAGGYNSLNDAILLESGRGFDADGGIKPDLVAPAVDITGANLRGMYIALSGTSAAAAITAAVAALIMEWMIVRGNVLLANGVDIKNVMVRNCRRKEKTDYPNKIFGYGFMNGFANF | failed
11 | GDAHDQQALDYALYHLRIMTPAHGERSSIAAKGLTGEGYKGHVFWDTEVFLLPFHLFSDPTVARSLLRYRWHNLPGAQEKARRNGWQGALFPWESARSGEEETPEFAAINIRTGLRQKVASAQAEHHLVADIAWAVIQYWQTTGDESFIAHEGMALLLETAKFWISRAVRVNDRLEIHDVIGPDEYTEHVNNNAFTSYMVYYNVQQALSIARQFGCSDDAFIHRAEMFLKELRLPEIQPDGVLPQDDSFMTKPAINLAKYKAAAGKQTILLDYSRAEVNEMQILKQADVVMLNYMLPEQFSSASCLANLQFYEPRTIHDSSLSKAIHGIVAARCGLLTQSYQFWREGTEIDLGADPHSCDDGIHAAATGAIWLGAIQGFA | failed
12 | MGHHHHHHSHLSPDRRASLLTSLMLVKRDYRYDRVLFWGRILGLVADYYIAQGLSEDQLAPRKTLYSLNCTEWSLLPPATEEMVAQSSVVKGRFMGDPSYEYEHTELQKVNEGEKVFEEEIVVQIKEETRLVSVIDQIDKAVAIIPRGALFKTPFGPTHVNRTFEGLSLSEAKKLSSYFHFREPVELKNKTLLEKADLDPSLDFMDSLEHDIPKGSWSIQMERGNALVVLRSLLWPGLTFYHAPRTKNYGYVYVGTGEKNMDLPFML | failed
13 | MNNPKPCEWKSNELSRGYIADYKAFNFVDGEGVRCSLYVSGCPFHCEGCYNKAAQSFKYGKPYTKELEDDILKDIGHESVQGLTLLGGEPFLNTATCLSIVKRIRATYGETKDIWSWTGYTWDEMMQETADKLELLSLIDVLVDGRFEQKLFDPNLAFRGSSNQRIIDVQKSLAAGEVVLYELLEHHHHHH | failed
14 | MKINQLWQEPKQRSKRYYLLDNIFSAITHGIGFGLAIAGLVVLIVKAAHTGSPMRIVTFTIYGACLVLLYLFSTLYHSLVFTRAKNVFQIFDHSSIFLLIAGSYTPYSLVAIGGVWGWTLFGLIWGLTIFGIIYYVFNRGKHVIFDTILYVAMGWLVILSGPYLYVRLSSTGFWLLVGGGIAYTIGAILFSMRSVPFIHTIWHLFIILGSILMYFSVLLYV | failed
15 | MTLATATNEHLANISNTLIYSAMAVYTLAFFAYIAEWLFGSRSKVGRTAAALTHKTAAKAPAVTVKSAGGTAVLDRPQVVTRSAPGARDVPDGPGAHGGDEQGDLYGRIAVSLTVLAFAVEAAGVVARALSVQRAPWGNMYEFNITFSTVAVGVYLALLALKKNIRWLGLPLVTTVLLDLGLAVTVLYTASDQLVPALHSYWLYIHVSTAILCGAVFYVGAVGALLYLFKDSYENKLATGGQPGRFATSVMERLPASASLDKFSYRVNAAVFPLWTFTIIAGAIWAGDAWGRYWGWDPKETWAFITWVAYACYLHARATAGWKGRKAAYIALIAFACWLFNYYGVNIFVSGKHSYAGV | failed
16 | MNLLPKTREEFAQTDYWNEFFKKRGEKAFEWYGEYLELCDQIHKYIKPADRILMLGCGNSKLSMDMYDTGFRDITNIDISPIAVKKMLELNAKSRPEMKFLQMDATAMTFPDESFSVSLDKGTLDALFADDEPETRAVVENYFKEILRTMRNGGRYVGISLLQEHILNFLLDFLPKHNCMLRIVHCLGVEQANKEKNADDALTLPVFVVVATKFKSLPMPVLEFGFGNDKMQRFTTVSELNSAVSSVQKAALVCNGLARSNIAGHNEVIMDLHRPSEQTPRYTIHILDKPPARGLGKYAAFIVPQGREVEWIFSTPAGRKKLQDSANFQRLAVVTLHRDQVYSTLDEVKQELADSIKNLSPAGLTDQIPYLSLGSDVGKRETLICGFSKISGDFRIEEVEANGKTLRRLIFLSNQFVVQSEALVKTVKIKGKKDRKKIDFGYLACQHHLYMSVGVQLATTVQHPKRDVEKDVLVVGLGGGGLCSFLHAALPQARITAVEIDPIMLEVAEQYFELKQDKRFHVVIDDGLDFVERCRNEDIHFDAVLFDVDSKDLSLGMSCPPQSFLATKILQHIKEIIGPKGLFMLNLVCRDESLRTEALNNLHKVFPAVCSYKLEEDINEIIYCANDEKYKTVEQWKKNMGTAGRGLNSAVKETKLASEDALEVAEFLSELKI | failed
17 | MRRLVLAALLAATSLTTAKAGDLLIHGGPIHTGVEAAPTAEAVLIRDDKILFVGPLAAAKAKAAKDVRAIDLKGAAAYPGFVDAHAHLTGIGLRELTLNLDQVKSVAELVAAVKAYAAAHPEGPISGRGWIETHWPEKRFPTKADLDAAAPGRIVVLGRSDGHASVASSAALAKAGITAATVPPPGGDILKGPDGQPDGMLIDHAQALVRNVIPPPNQALKREALRKAGQLYAARGWTGMANMSVMAEDLSLLRDEAAKGNFHIRIDNYMDPSGAEEVLTKGPQTDATGLIRVQGIKLYMDGALGSRGAALLEPYSDADTLGLQLTQPEQGLALMKRAKAAGAQVAMHAIGDRGNRLVLDWFEQSLGAEAKAARWRNEHSQIVADTDVPRFAKLGVIASMQPSHAIGDLFFAPARLGKARLHEGYRWADFLKADVVVAAGSDAPVEVGDPRIEFYAAVYRHSLDGFANADWHLDQAVSRAEALKMLTLAPAYAVFREKELGTLEAGKKADVTAFDRDLMTVEPKAILTAQPVLTVVDGKVVYSR | failed
18 | MNMQKLRIELGEETNDELYDLLLLADPSKDIVDEYLERGECYTAWAGDELAGVYVLLKTRPQTVEIVNIAVKESLQKKGFGKQLVLDAIEKAKKLGADTIEIGTGNSSIHQLSLYQKCGFRIQAIDHDFFLRHYDEDIFENGIQCRDMVRLYLDLLEHHHHHH | not failed
19 | MSSEKVMSESSNASTKEGQLPRSSGVSWSLIMGAAFLMATSAVGPGFLTQTTVFTQTLGASFAFVILVSIILDIGAQLNIWRVIVVSKKRAQDIANDLLPGLGYAIAGTVALGGLAFNIGNIGGAGMGMNVLFPSISPVAGASISAVIAVAIFMLKDAAKVMDRFTILMGAALIVMTLYVLFSTSPPIGEALYRSVWPEKLNVLAIITLVGGTVGGYITFAGAHRLIDAGVTGKEALPQVNRGSVSAISVASIVRVILFLAALGVISTGVTLDPSNPPASMFQHAAGNIGYKIFGLVLWAAAITSVIGAAYTSVSFLKTLHPMIDLHSRKFIIGFIVISTFIFCFIGKPVVLLIVAGALNGFILPVTLGIMLIAAKKAQIVGDYKHPVWMSVFGWLITAMMAAMSVYTLYMLLI | failed
20 | MEKREEAGEYHSKDFEWEFLKNIVENDPSLSHHLHHHHQNLSKYLPDSQPWQDFHSRHSSGKFFKERRYLLKEFPELVSCGENSKLLEIGCGNGSTVLPILRGSKNITVYACDCSSDALVRTKENIDRAISSVDNFHSFCCDFSTSEFPDWVACDRCRDKFMLNHSGGSESKHCIGGVDFVTLIFTLSAVPKERMPRAIKECFAVLKPGGLLLFRDYGLYDMTMLRFEPEKRVGFREYVRSDGTLSYFFCLDTARKLFTDAGFIEVELEYCCVKAVNRRKGKDMYRVWVHGKFQKPFSN | failed
21 | MAKVVKLEPISRETTVNTNDNLLSALLDSELHVLKECGGRGMCATCHVYIKEGMESLSPINKREQRTLEVITTANATSRLACQARVLGPGVVVELPSG | failed
